According to article PMC6158738:

What was measured:
[1] = molecular target: PfuHAN_DND E562A (Pyrococcus furiosus); experiment: SEC
PfuHAN wt = molecular target: T1, PfuHAN wt (Pyrococcus furiosus, UniProt Q8U3Q7 1-740); experiment: MST
T1 sequence: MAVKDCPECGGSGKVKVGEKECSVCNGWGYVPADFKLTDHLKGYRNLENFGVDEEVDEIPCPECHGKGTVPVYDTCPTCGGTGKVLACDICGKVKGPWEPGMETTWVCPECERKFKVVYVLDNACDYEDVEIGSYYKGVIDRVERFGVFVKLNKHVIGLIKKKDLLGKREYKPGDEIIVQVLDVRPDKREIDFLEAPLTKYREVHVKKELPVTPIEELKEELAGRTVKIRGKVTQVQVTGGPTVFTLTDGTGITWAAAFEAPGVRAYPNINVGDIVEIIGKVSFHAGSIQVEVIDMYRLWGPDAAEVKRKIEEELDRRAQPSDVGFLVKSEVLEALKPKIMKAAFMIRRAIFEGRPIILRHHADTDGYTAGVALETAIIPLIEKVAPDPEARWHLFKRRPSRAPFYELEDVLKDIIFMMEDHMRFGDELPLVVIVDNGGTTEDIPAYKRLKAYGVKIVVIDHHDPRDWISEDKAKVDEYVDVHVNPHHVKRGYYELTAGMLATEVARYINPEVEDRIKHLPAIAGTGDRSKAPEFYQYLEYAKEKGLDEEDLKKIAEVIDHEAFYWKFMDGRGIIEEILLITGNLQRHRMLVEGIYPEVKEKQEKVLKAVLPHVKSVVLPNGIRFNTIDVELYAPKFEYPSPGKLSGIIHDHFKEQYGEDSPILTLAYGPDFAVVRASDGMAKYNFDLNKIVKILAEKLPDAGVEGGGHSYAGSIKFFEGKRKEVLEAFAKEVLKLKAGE

PfuHAN-D4 = molecular target: T2, PfuHAN-D4 (Pyrococcus furiosus, UniProt Q8U3Q7 112-740); experiment: EMSA
T2 sequence: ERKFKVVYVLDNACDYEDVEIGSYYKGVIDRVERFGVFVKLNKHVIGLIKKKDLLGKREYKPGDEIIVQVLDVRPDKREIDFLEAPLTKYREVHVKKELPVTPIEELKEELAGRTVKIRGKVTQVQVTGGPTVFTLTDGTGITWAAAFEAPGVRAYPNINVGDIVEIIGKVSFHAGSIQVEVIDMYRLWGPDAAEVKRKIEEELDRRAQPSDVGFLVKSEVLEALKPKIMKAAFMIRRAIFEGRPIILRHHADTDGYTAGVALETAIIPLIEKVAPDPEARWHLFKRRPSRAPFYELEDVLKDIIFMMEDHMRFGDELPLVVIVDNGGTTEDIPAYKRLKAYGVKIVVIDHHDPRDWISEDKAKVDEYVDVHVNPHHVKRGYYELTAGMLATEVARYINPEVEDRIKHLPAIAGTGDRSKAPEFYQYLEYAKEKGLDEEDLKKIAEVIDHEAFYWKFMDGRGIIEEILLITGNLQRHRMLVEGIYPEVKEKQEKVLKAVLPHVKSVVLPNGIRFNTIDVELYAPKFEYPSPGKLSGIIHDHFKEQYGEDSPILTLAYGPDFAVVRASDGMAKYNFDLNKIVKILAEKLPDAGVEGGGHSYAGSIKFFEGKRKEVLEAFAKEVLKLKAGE

PfuHAN-D3 = molecular target: T3, PfuHAN-D3 (Pyrococcus furiosus, UniProt Q8U3Q7 201-740); experiment: EMSA
T3 sequence: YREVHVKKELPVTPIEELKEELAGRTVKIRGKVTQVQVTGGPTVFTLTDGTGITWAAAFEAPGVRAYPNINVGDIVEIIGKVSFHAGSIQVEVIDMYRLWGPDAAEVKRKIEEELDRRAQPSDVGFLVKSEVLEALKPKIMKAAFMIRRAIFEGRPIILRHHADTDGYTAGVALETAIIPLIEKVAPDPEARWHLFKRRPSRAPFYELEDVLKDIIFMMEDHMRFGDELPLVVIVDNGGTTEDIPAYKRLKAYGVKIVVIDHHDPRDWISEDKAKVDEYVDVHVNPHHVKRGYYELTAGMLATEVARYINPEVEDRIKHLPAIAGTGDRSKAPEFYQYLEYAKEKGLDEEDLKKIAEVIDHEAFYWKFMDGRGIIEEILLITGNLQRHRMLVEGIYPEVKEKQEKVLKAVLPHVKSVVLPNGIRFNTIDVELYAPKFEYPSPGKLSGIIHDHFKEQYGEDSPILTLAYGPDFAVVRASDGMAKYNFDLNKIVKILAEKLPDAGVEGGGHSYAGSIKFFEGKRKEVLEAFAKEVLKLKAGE

PfuHAN-D5 = molecular target: T4, PfuHAN-D5 (Pyrococcus furiosus, UniProt Q8U3Q7 50-740); experiment: EMSA
T4 sequence: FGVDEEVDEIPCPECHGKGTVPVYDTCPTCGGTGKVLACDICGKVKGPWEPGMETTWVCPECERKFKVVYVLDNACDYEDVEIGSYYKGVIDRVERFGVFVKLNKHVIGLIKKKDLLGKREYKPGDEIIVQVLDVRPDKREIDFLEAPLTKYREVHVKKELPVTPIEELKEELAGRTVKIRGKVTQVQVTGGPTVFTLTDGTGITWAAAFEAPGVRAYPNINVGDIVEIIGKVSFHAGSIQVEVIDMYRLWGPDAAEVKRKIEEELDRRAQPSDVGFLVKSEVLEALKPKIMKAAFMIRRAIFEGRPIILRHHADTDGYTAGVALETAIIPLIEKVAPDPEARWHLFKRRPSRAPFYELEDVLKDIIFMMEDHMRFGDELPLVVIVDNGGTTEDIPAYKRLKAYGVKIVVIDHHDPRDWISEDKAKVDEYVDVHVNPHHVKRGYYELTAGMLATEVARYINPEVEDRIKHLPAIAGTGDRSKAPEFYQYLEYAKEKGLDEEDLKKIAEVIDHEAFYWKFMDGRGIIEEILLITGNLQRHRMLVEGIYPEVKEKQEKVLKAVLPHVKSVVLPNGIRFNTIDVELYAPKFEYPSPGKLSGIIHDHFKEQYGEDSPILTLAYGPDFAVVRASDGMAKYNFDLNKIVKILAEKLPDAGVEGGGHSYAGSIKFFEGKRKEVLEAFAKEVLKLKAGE

PfuHAN-D1 = molecular target: T5, PfuHAN-D1 (Pyrococcus furiosus, UniProt Q8U3Q7 305-740); experiment: EMSA
T5 sequence: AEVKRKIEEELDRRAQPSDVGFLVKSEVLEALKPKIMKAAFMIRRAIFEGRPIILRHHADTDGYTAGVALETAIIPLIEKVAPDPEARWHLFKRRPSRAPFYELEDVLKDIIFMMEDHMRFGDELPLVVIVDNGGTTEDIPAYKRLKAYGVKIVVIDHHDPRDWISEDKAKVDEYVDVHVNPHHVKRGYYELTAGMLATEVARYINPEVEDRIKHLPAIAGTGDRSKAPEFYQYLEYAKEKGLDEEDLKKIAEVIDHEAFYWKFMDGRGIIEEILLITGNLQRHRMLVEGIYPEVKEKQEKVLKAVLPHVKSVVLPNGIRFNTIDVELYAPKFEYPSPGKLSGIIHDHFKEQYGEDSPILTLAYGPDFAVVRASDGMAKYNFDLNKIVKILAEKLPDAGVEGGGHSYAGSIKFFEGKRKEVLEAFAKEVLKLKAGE

PfuHAN-D2 = molecular target: T6, PfuHAN-D2 (Pyrococcus furiosus, UniProt Q8U3Q7 227-740); experiment: EMSA
T6 sequence: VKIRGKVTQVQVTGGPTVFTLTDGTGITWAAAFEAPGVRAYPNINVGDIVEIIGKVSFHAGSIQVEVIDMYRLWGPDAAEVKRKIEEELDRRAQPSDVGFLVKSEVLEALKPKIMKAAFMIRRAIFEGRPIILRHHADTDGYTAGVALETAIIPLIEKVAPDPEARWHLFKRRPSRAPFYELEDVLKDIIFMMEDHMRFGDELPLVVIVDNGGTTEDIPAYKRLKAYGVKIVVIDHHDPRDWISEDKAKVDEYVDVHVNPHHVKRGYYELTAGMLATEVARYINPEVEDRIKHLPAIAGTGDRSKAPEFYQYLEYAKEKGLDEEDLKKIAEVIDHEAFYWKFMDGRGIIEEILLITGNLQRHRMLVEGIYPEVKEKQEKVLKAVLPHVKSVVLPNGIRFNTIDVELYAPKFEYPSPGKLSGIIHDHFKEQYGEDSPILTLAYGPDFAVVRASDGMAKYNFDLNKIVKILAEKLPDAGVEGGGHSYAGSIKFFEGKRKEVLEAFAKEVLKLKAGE

Row | Molecule | stoichiometry N [1] | binding result (PfuHAN wt) | binding result (PfuHAN-D4) | binding result (PfuHAN-D3) | binding result (PfuHAN-D5) | binding result (PfuHAN-D1) | binding result (PfuHAN-D2)
1 | PfuHAN_DND E562A (domain or fragment) | 3 |  |  |  |  |  | 
2 | AGGCTGCGGTCGAGTTGACAGCACTGCACGCATTACTGAGCT (ssDNA) [42-nt ssDNA] |  | no binding | no binding | no binding | no binding | no binding | no binding
